B1: Scaffold protein ILK (Homo sapiens), Q13418 (parent)
chain: MDDIFTQCREGNAVAVRLWLDNTENDLNQGDDHGFSPLHWACREGRSAVVEMLIMRGARINVMNRGDDTPLHLAASHGHRDIVQKLLQYKADINAVNEHGNVPLHYACFWGQDQVAEDLVANGALVSICNKYGEMPVDKAKAPLRELLRERAEKMGQNLNRIPYKDTFWKGTTRTRPRNGTLNKHSGIDFKQLNFLTKLNENHSGELWKGRWQGNDIVVKVLKVRDWSTRKSRDFNEECPRLRIFSHPNVLPVLGACQSPPAPHPTLITHWMPYGSLYNVLHEGTNFVVDQSQAVKFALDMARGMAFLHTLEPLIPRHALNSRSVMIDEDMTARISMADVKFSFQCPGRMYAPAWVAPEALQKKPEDTNRRSADMWSFAVLLWELVTREVPFADLSNMEIGMKVALEGLRPTIPPGISPHVCKLMKICMNEDPAKRPKFDMIVPILEKMQDK
partner: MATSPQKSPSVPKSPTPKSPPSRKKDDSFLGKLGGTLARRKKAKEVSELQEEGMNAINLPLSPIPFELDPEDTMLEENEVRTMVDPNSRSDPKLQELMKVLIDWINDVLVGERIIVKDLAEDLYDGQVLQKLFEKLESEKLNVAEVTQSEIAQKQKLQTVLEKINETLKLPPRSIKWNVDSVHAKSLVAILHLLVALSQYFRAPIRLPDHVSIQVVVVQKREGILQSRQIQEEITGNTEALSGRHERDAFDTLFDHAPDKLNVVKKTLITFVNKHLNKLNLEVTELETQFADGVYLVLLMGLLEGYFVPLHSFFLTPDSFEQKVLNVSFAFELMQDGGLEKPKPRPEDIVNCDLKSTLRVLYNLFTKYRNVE

Variants of: B1
Details: with parva_human PARVA

| effect of a mutation on the interaction | Variant |
| --- | --- |
| disrupting interaction | M402A;K403A |
